# Assay results: patent US20200199231A1 (Genmab, published 2020)
# Changes are numbered by the printed parent chain.
# B1: IgG1-11B8 (antibody, V domains shown)
# VH: EVQLVQSGGGLVHPGGSLRLSCTGSGFTFSYHAMHWVRQAPGKGLEWVSIIGTGGVTYYADSVKGRFTISRDNVKNSLYLQMNSLRAEDMAVYYCARDYYGAGSFYDGLYGMDVWGQGTTVTVSS
# VL: EIVLTQSPATLSLSPGERATLSCRASQSVSSYLAWYQQKPGQAPRLLIYDASNRATGIPARFSGSGSGTDFTLTISSLEPEDFAVYYCQQRSDWPLTFGGGTKVEIK
# notes: Monospecific, bivalent IgG1
# B2: bsIgG1-huCD3-H1L1-FEALxCD20-2C6-FEAR (bispecific antibody)
# heavy 1: not shown
# light: not shown
# heavy 2: AVQLVESGGGLVQPGRSLRLSCAASGFTFGDYTMHWVRQAPGKGLEWVSGISWNSGSIGYADSVKGRFTISRDNAKNSLYLQMNSLRAEDTALYYCTKDNQYGSGSTYGLGVWGQGTLVTVSSASTKGPSVFPLAPSSKSTSGGTAALGCLVKDYFPEPVTVSWNSGALTSGVHTFPAVLQSSGLYSLSSVVTVPSSSLGTQTYICNVNHKPSNTKVDKRVEPKSCDKTHTCPPCPAPEFEGGPSVFLFPPKPKDTLMISRTPEVTCVVVAVSHEDPEVKFNWYVDGVEVHNAKTKPREEQYNSTYRVVSVLTVLHQDWLNGKEYKCKVSNKALPAPIEKTISKAKGQPREPQVYTLPPSREEMTKNQVSLTCLVKGFYPSDIAVEWESNGQPENNYKTTPPVLDSDGSFFLYSRLTVDKSRWQQGNVFSCSVMHEALHNHYTQKSLSLSPGK
# VL: B1 VL with D93N
# notes: also called CD3x2C6; huCD3x2C6
# B3: bsIgG1-huCLB-T3/4-FEALxCD20-7D8-FEAR (bispecific antibody)
# heavy 1: EVQLVESGGGLVKPGGSLRLSCAASGFTFSSYGMFWVRQAPGKGLEWVATISRYSRYIYYPDSVKGRFTISRDNAKNSLYLQMNSLRAEDTAVYYCARRPLYGSSPDYWGQGTLVTVSSASTKGPSVFPLAPSSKSTSGGTAALGCLVKDYFPEPVTVSWNSGALTSGVHTFPAVLQSSGLYSLSSVVTVPSSSLGTQTYICNVNHKPSNTKVDKRVEPKSCDKTHTCPPCPAPEFEGGPSVFLFPPKPKDTLMISRTPEVTCVVVAVSHEDPEVKFNWYVDGVEVHNAKTKPREEQYNSTYRVVSVLTVLHQDWLNGKEYKCKVSNKALPAPIEKTISKAKGQPREPQVYTLPPSREEMTKNQVSLTCLVKGFYPSDIAVEWESNGQPENNYKTTPPVLDSDGSFLLYSKLTVDKSRWQQGNVFSCSVMHEALHNHYTQKSLSLSPGK
# VL 1: EIVLTQSPATLSLSPGERATLSCSASSSVTYVHWYQQKPGQAPRLLIYDTSKLASGIPARFSGSGSGTDFTLTISSLEPEDFAVYYCFQGSGYPLTFGSGTKLEMR
# heavy 2: EVQLVESGGGLVQPDRSLRLSCAASGFTFHDYAMHWVRQAPGKGLEWVSTISWNSGTIGYADSVKGRFTISRDNAKNSLYLQMNSLRAEDTALYYCAKDIQYGNYYYGMDVWGQGTTVTVSSASTKGPSVFPLAPSSKSTSGGTAALGCLVKDYFPEPVTVSWNSGALTSGVHTFPAVLQSSGLYSLSSVVTVPSSSLGTQTYICNVNHKPSNTKVDKRVEPKSCDKTHTCPPCPAPEFEGGPSVFLFPPKPKDTLMISRTPEVTCVVVAVSHEDPEVKFNWYVDGVEVHNAKTKPREEQYNSTYRVVSVLTVLHQDWLNGKEYKCKVSNKALPAPIEKTISKAKGQPREPQVYTLPPSREEMTKNQVSLTCLVKGFYPSDIAVEWESNGQPENNYKTTPPVLDSDGSFFLYSRLTVDKSRWQQGNVFSCSVMHEALHNHYTQKSLSLSPGK
# VL 2: B1 VL with D93N, L96I, G100Q, K103R, V104L
# notes: also called huCLB-T3/4x7D8; bsIgG1-huCLB-3/4-FEALxCD20-7D8-FEAR
# B4: bsIgG1-huCLB-T3/4-FEALxCD20-2F2-FEAR (bispecific antibody)
# heavy 1: B3 heavy 1
# VL 1: B3 VL 1
# heavy 2: B3 heavy 2 with D15G, H30N, T57S, N77K
# VL 2: B1 VL with D93N, L96I, G100Q, K103R, V104L
# notes: also called huCLB-T3/4x2F2; bsIgG1-huCLB-3/4-FEALxCD20-2F2-FEAR
# B5: IgG1-7D8 (antibody, V domains shown)
# VH: EVQLVESGGGLVQPDRSLRLSCAASGFTFHDYAMHWVRQAPGKGLEWVSTISWNSGTIGYADSVKGRFTISRDNAKNSLYLQMNSLRAEDTALYYCAKDIQYGNYYYGMDVWGQGTTVTVSS
# VL: B1 VL with D93N, L96I, G100Q, K103R, V104L
# notes: Monospecific, bivalent IgG1
# What was measured:
# [1] = molecular target: T1, human CD20 (human, UniProt P11836 1-297); assay: flow cytometry on Daudi cells (CD20-positive, CD3-negative); PE-conjugated goat anti-human IgG F(ab')2; geomean (PE)
# T1 construct: whole, on cells; On Daudi and other human B cell lines, on human B cells in blood, or transiently expressed in HEK293F cells (construct pEE12.4CD20HS-GA); also called wild type CD20; WT CD20
# T1 sequence (looked up): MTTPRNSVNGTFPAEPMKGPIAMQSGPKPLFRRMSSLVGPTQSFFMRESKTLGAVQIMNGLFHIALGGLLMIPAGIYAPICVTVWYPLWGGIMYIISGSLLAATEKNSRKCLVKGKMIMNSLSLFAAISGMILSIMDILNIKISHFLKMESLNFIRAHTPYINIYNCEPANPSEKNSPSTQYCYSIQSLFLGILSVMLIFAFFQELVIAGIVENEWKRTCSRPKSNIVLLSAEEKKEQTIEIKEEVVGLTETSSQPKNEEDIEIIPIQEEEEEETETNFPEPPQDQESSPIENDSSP
# Method: (§1) In addition to the non-activating mutations, L234F, L235E, D265A, on both arms, the bispecific antibody contained an F405L mutation on one arm and a K409R mutation on the other arm.
# (§2) Cells (1×10⁵ cells/well) were incubated in polystyrene 96-well round-bottom plates (Greiner bio-one, cat. no. 650101) with serial dilutions of antibodies (range 0.041 to 30 μg/mL in 3-fold dilution steps [A-E] and 0.00061 to 10 μg/mL in 4-fold dilution steps [F-I]) in 100 μL PBS/0.1% BSA/0.02% azide (from here designated as staining buffer) at 4° C. for 30 min.
# (§3) After washing twice in staining buffer, cells were incubated in 50 μL secondary antibody at 4° C. for 30 min. As a secondary antibody, R-Phycoerythrin (PE)-conjugated goat-anti-human IgG F(ab′)₂ (cat. no. 109-116-098, Jackson ImmunoResearch Laboratories, Inc., West Grove, Pa.) diluted 1:200 in staining buffer, was used for all experiments. Next, cells were washed twice in staining buffer, re-suspended in 30 μL staining buffer and analyzed on an iQue screener (Intellicyt Corporation, USA) (for FIG. 1A-E) or re-suspended in 100 μL staining buffer and analyzed on a FACSCANTOII (BD Biosciences) (FIG. 1F-I). Binding curves were analyzed using non-linear regression (sigmoidal dose-response with variable slope) using GraphPad Prism V75.04 software (GraphPad Software, San Diego, Calif., USA).
# [2] = molecular target: T1, human CD20; assay: flow cytometry on HEK293F cells transiently expressing wild type CD20; PE-conjugated goat anti-human IgG F(ab')2; MFI
# Method: (§4) PCR was performed on a Tgradient Thermocycler 96 (Biometra) using a 35 cycle program of: +95° C. for 15 min, followed by 35 cycles of: +94° C. for 30 sec, anneal: 55° C. for 30 sec and extension: +72° C. for 2 min, followed by a final extension step at 72° C. for 10 min and subsequent storage at 4° C. The completed reactions were analyzed by agarose gel electrophoresis. See Table 11 for details of primer pairs used for colony PCR. DNA sequencing: Plasmid DNA samples were send to AGOWA (Berlin, Germany) for sequence analysis. Sequences were analyzed using the VectorNTI software package (Informax, Frederick, Md., USA).
# (§5) Mutagenesis: The mutagenesis was performed, using the QuikChange® XL Site-Directed Mutagenesis kit (Cat 200517-5, Lot 1120630, Stratagene Europe) according to the manufacturer's instructions. Mutagenesis reactions were concentrated using ethanol precipitation and transformed into either oneshot DH5α-TIR competent E. coli cells or electroporated into ElectroTen-Blue® Electroporation-Competent Cells. Colonies were checked by colony PCR and restriction digestion prior to transfection. […] Anti-CD20 Antibody binding: HEK293F cells were taken up in staining buffer (PBS supplemented with 0.1% BSA and 0.02% NaN₃) and added to round bottom plates (1-3×10⁵/well in 100 μL). […] After washing twice in staining buffer, cells were incubated in 50 μL secondary antibody at 4° C. for 30 min. As a secondary antibody, R-Phycoerythrin (PE)-conjugated goat-anti-human IgG F(ab′)₂ was used, as described supra. Next, cells were washed once in staining buffer, re-suspended in 150 μL staining buffer and analyzed on a flow cytometer (FACSCanto-720, Becton Dickinson, San Diego, Calif., USA) and 10,000 events per sample were acquired at high flow rate. Binding curves were analyzed using non-linear regression (sigmoidal dose-response with variable slope) using GraphPad Prism V75.04 software (GraphPad Software, San Diego, Calif., USA).
# [3] = molecular target: T1, human CD20; assay: flow cytometry on Daudi cells (CD20-positive, CD3-negative); PE-conjugated goat anti-human IgG F(ab')2; median FI (PE)
# Method: as §1, §2, §3
# [4] = molecular target: T2, CD20 KDD mutant (human, UniProt P11836 1-297); assay: flow cytometry, HEK293F transfectants, MFI mutant/MFI wt at 10 µg/mL
# T2 construct: whole, on cells; Transiently expressed in HEK293F cells; also called T159K/N163D/N166D
# T2 sequence (looked up): T1 sequence (looked up) with T159K, N163D, N166D
# Method: (§6) As a secondary antibody, R-Phycoerythrin (PE)-conjugated goat-anti-human IgG F(ab′)₂ was used, as described supra. Next, cells were washed once in staining buffer, re-suspended in 150 μL staining buffer and analyzed on a flow cytometer (FACSCanto-720, Becton Dickinson, San Diego, Calif., USA) and 10,000 events per sample were acquired at high flow rate. Binding curves were analyzed using non-linear regression (sigmoidal dose-response with variable slope) using GraphPad Prism V75.04 software (GraphPad Software, San Diego, Calif., USA).
# (§7) Numbers indicate the percentage of binding to the CD20 mutants, relative to binding to wild type CD20, at 10 μg/mL. The percentage of binding was calculated by the following formula: (MFI binding to CD20 mutant)/(MFI binding CD20 wt) × 100%
# [5] = molecular target: T3, CD20-AxP (human, UniProt P11836 1-297); assay: as above
# T3 construct: whole, on cells; Transiently expressed in HEK293F cells; also called AxP mutant; CD20 mutant (CD20-AxP)
# T3 sequence (looked up): T1 sequence (looked up) with A170S, P172S
# Method: as §6, §7
# [6] = molecular target: T2, CD20 KDD mutant; assay: flow cytometry, HEK293F cells expressing CD20 KDD mutant
# Method: as §4, §5
# [7] = molecular target: T1, human CD20; assay: flow cytometry on Daudi cells (CD20-positive, CD3-negative); PE-conjugated goat anti-human IgG F(ab')2; median FI (PE); remark: listed apart in the source
# Method: as §1, §2, §3
# [8] = molecular target: T3, CD20-AxP; assay: flow cytometry on HEK293F cells transiently expressing CD20-AxP (A170S/P172S); PE-conjugated goat anti-human IgG F(ab')2; MFI
# Method: as §4, §5
# [9] = molecular target: T4, human CD3 (human, UniProt P07766 22-207); assay: flow cytometry on Jurkat cells (CD3-positive, CD20-negative); PE-conjugated goat anti-human IgG F(ab')2; median FI (PE)
# T4 construct: CD3 as part of the TCR complex on Jurkat cells or human T cells; also called human CD3ε (epsilon)
# T4 sequence (P07766 22-207 limits assumed): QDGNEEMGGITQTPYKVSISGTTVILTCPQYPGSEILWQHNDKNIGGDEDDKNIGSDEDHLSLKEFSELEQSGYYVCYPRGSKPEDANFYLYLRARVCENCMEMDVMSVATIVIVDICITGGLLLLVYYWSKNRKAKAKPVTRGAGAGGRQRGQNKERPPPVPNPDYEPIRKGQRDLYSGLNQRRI
# Method: as §1, §2, §3
Binder,EC50 (read off the curve) [1],EC50 (read off the curve) [2],EC50 (read off the curve) [3],% of wt CD20 binding [4],% of wt CD20 binding [5],binding result [6],EC50 (read off the curve) [7],EC50 (read off the curve) [8],EC50 (read off the curve) [9]
B1,~2 µg/mL,,,,,,,,
B2,,~0.1 µg/mL,~0.9 µg/mL,3%,92%,no binding (tested: 0.0015-10 µg/mL),,,
B3,,~0.1 µg/mL,,3%,113%,no binding (tested: 0.0015-10 µg/mL),~0.8 µg/mL,~0.2 µg/mL,~0.1 µg/mL
B4,,~0.1 µg/mL,,5%,112%,no binding (tested: 0.0015-10 µg/mL),~0.3 µg/mL,~0.2 µg/mL,~0.06 µg/mL
B5,~0.6 µg/mL,,,,,,,,
